Seven sequences from the supplement of paper PMC5998384 can be followed below.

In data set [1] the test system is HeLa Kyoto. In words: solubility change mitosis vs G1/S (difference of NP-40 vs SDS log2 ratios) (log2 ratio difference); higher = more soluble in mitosis.
The subject of data set [2] is HeLa Kyoto. Kind of data set: thermal stability score vs G1/S (z-score of summed log2 fold changes over temperatures); higher = more thermally stable than in G1/S.
Data set [3] has as its system HeLa Kyoto. In words: melting temperature (median over replicates), in situ; higher = more thermally stable.
Data set [4] deals with HeLa Kyoto. Kind of data set: solubility in G1/S (NP-40 vs SDS abundance) (log2 ratio); higher = more soluble. As to conditions: cell cycle stage: G1/S.
Where [5] appears, read: cell cycle stage: early G1 (4.5 h after nocodazole release).
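For melting temperature (median over replicates), in situ in this document: HeLa Kyoto cells synchronized by double thymidine or nocodazole block, proteins quantified by TMT10plex mass spectrometry, three independent biological replicates.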
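For solubility change mitosis vs G1/S (difference of NP-40 vs SDS log2 ratios) in this document: synchronized HeLa Kyoto cells (double thymidine block for G1/S, nocodazole release for mitosis), protein amounts in NP-40 versus SDS lysates quantified by mass spectrometry, three biological replicates.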
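For solubility in G1/S (NP-40 vs SDS abundance) in this document: HeLa Kyoto cells arrested at G1/S by double thymidine block, proteins quantified by TMT10plex mass spectrometry in mild NP-40 versus SDS extracts, three biological replicates.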
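For thermal stability score vs G1/S (z-score of summed log2 fold changes over temperatures) in this document: synchronized HeLa Kyoto cells, proteins quantified by TMT10plex mass spectrometry, three biological replicates, mitosis taken 0.5 h after nocodazole release, G1/S directly after double thymidine block.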

Turning to “MSKSFQQSSLSRDSQGHGRDLSAAGIGLLAAATQSLSMPASLGRMNQGTARLASLMNLGMSSSLNQQGAHSALSSASTSSHNLQSIFNIGSRGPLPLSSQHRGDADQASNILASFGLSARDLDELSRYPEDKITPENLPQILLQLKRRRTEEGPTLSYGRDGRSATREPPYRVPRDDWEEKRHFRRDSFDDRGPSLNPVLDYDHGSRSQESGYYDRMDYEDDRLRDGERCRDDSFFGETSHNYHKFDSEYERMGRGPGPLQERSLFEKKRGAPPSSNIEDFHGLLPKGYPHLCSICDLPVHSNKEWSQHINGASHSRRCQLLLEIYPEWNPDNDTGHTMGDPFMLQQSTNPAPGILGPPPPSFHLGGPAVGPRGNLGAGNGNLQGPRHMQKGRVETSRVVHIMDFQRGKNLRYQLLQLVEPFGVISNHLILNKINEAFIEMATTEDAQAAVDYYTTTPALVFGKPVRVHLSQKYKRIKKPEGKPDQKFDQKQELGRVIHLSNLPHSGYSDSAVLKLAEPYGKIKNYILMRMKSQAFIEMETREDAMAMVDHCLKKALWFQGRCVKVDLSEKYKKLVLRIPNRGIDLLKKDKSRKRSYSPDGKESPSDKKSKTDGSQKTESSTEGKEQEEKSGEDGEKDTKDDQTEQEPNMLLESEDELLVDEEEAAALLESGSSVGDETDLANLGDVASDGKKEPSDKAVKKDGSASAAAKKKLKKVDKIEELDQENEAALENGIKNEENTEPGAESSENADDPNKDTSENADGQSDENKDDYTIPDEYRIGPYQPNVPVGIDYVIPKTGFYCKLCSLFYTNEEVAKNTHCSSLPHYQKLKKFLNKLAEERRQKKET [MATR3]”, in the data set on HeLa Kyoto [1], the “solubility change mitosis (log2)” value was 0.223. The thermal stability score in the data set with HeLa Kyoto [2] (setting [5]) stood at 9.67; in the data set on HeLa Kyoto [2] (cell cycle stage: mitosis) it was 19.4. The figures for the melting temperature in the data set on HeLa Kyoto [3] (cell cycle stage: G1/S) and with HeLa Kyoto [3] (cell cycle stage: mitosis) were 45.7 °C and 48.2 °C, respectively. For the same sequence, the “solubility in G1/S (log2)” value with HeLa Kyoto [4] was -0.173.
With “MSKSLKKLVEESREKNQPEVDMSDRGISNMLDVNGLFTLSHITQLVLSHNKLTMVPPNIAELKNLEVLNFFNNQIEELPTQISSLQKLKHLNLGMNRLNTLPRGFGSLPALEVLDLTYNNLSENSLPGNFFYLTTLRALYLSDNDFEILPPDIGKLTKLQILSLRDNDLISLPKEIGELTQLKELHIQGNRLTVLPPELGNLDLTGQKQVFKAENNPWVTPIADQFQLGVSHVFEYIRSETYKYLYGRHMQANPEPPKKNNDKSKKISRKPLAAKNR [RSU1]”, the “solubility change mitosis (log2)” value with HeLa Kyoto [1] worked out at 0.203. Also, the values for the thermal stability score in the data set on HeLa Kyoto [2] (setting [5]) and in the data set with HeLa Kyoto [2] (cell cycle stage: mitosis) were -0.646 and -1.96, respectively. The melting temperature in the data set with HeLa Kyoto [3] (cell cycle stage: G1/S) was 50.3 °C; with HeLa Kyoto [3] (cell cycle stage: mitosis), 52.9 °C. The “solubility in G1/S (log2)” value in the data set on HeLa Kyoto [4] amounted to 0.389.
Take “MSKTNKSKSGSRSSRSRSASRSRSRSFSKSRSRSRSLSRSRKRRLSSRSRSRSYSPAHNRERNHPRVYQNRDFRGHNRGYRRPYYFRGRNRGFYPWGQYNRGGYGNYRSNWQNYRQAYSPRRGRSRSRSPKRRSPSPRSRSHSRNSDKSSSDRSRRSSSSRSSSNHSRVESSKRKSAKEKKSSSKDSRPSQAAGDNQGDEAKEQTFSGGTSQDTKASESSKPWPDATYGTGSASRASAVSELSPRERSPALKSPLQSVVVRRRSPRPSPVPKPSPPLSSTSQMGSTLPSGAGYQSGTHQGQFDHGSGSLSPSKKSPVGKSPPSTGSTYGSSQKEESAASGGAAYTKRYLEEQKTENGKDKEQKQTNTDKEKIKEKGSFSDTGLGDGKMKSDSFAPKTDSEKPFRGSQSPKRYKLRDDFEKKMADFHKEEMDDQDKDKAKGRKESEFDDEPKFMSKVIGANKNQEEEKSGKWEGLVYAPPGKEKQRKTEELEEESFPERSKKEDRGKRSEGGHRGFVPEKNFRVTAYKAVQEKSSSPPPRKTSESRDKLGAKGDFPTGKSSFSITREAQVNVRMDSFDEDLARPSGLLAQERKLCRDLVHSNKKEQEFRSIFQHIQSAQSQRSPSELFAQHIVTIVHHVKEHHFGSSGMTLHERFTKYLKRGTEQEAAKNKKSPEIHRRIDISPSTFRKHGLAHDEMKSPREPGYKAEGKYKDDPVDLRLDIERRKKHKERDLKRGKSRESVDSRDSSHSRERSAEKTEKTHKGSKKQKKHRRARDRSRSSSSSSQSSHSYKAEEYTEETEEREESTTGFDKSRLGTKDFVGPSERGGGRARGTFQFRARGRGWGRGNYSGNNNNNSNNDFQKRNREEEWDPEYTPKSKKYYLHDDREGEGSDKWVSRGRGRGAFPRGRGRFMFRKSSTSPKWAHDKFSGEEGEIEDDESGTENREEKDNIQPTTE [THRAP3]”: the “solubility change mitosis (log2)” value in the data set on HeLa Kyoto [1] was determined as 0.46. Further, the thermal stability score was -5.24 with HeLa Kyoto [2] (setting [5]) and -3.44 in the data set with HeLa Kyoto [2] (cell cycle stage: mitosis). Further, the melting temperature with HeLa Kyoto [3] (cell cycle stage: G1/S) was found to be 50.5 °C; with HeLa Kyoto [3] (cell cycle stage: mitosis) it was 51.2 °C. In addition, the “solubility in G1/S (log2)” value with HeLa Kyoto [4] is -1.38.
On to “MSLDIQSLDIQCEELSDARWAELLPLLQQCQVVRLDDCGLTEARCKDISSALRVNPALAELNLRSNELGDVGVHCVLQGLQTPSCKIQKLSLQNCCLTGAGCGVLSSTLRTLPTLQELHLSDNLLGDAGLQLLCEGLLDPQCRLEKLQLEYCSLSAASCEPLASVLRAKPDFKELTVSNNDINEAGVRVLCQGLKDSPCQLEALKLESCGVTSDNCRDLCGIVASKASLRELALGSNKLGDVGMAELCPGLLHPSSRLRTLWIWECGITAKGCGDLCRVLRAKESLKELSLAGNELGDEGARLLCETLLEPGCQLESLWVKSCSFTAACCSHFSSVLAQNRFLLELQISNNRLEDAGVRELCQGLGQPGSVLRVLWLADCDVSDSSCSSLAATLLANHSLRELDLSNNCLGDAGILQLVESVRQPGCLLEQLVLYDIYWSEEMEDRLQALEKDKPSLRVIS [RNH1]”, for which the “solubility change mitosis (log2)” value in the data set on HeLa Kyoto [1] is -0.113. For the same sequence, the thermal stability score with HeLa Kyoto [2] (setting [5]) amounted to 1.78; in the data set on HeLa Kyoto [2] (cell cycle stage: mitosis), 1.35. Besides, the melting temperature in the data set on HeLa Kyoto [3] (cell cycle stage: G1/S) and in the data set with HeLa Kyoto [3] (cell cycle stage: mitosis) was 52.8 °C in each case. Moreover, the “solubility in G1/S (log2)” value in the data set with HeLa Kyoto [4] stood at 0.188.
For “MSLEQEEETQPGRLLGRRDAVPAFIEPNVRFWITERQSFIRRFLQWTELLDPTNVFISVESIENSRQLLCTNEDVSSPASADQRIQEAWKRSLATVHPDSSNLIPKLFRPAAFLPFMAPTVFLSMTPLKGIKSVILPQVFLCAYMAAFNSINGNRSYTCKPLERSLLMAGAVASSTFLGVIPQFVQMKYGLTGPWIKRLLPVIFLVQASGMNVYMSRSLESIKGIAVMDKEGNVLGHSRIAGTKAVRETLASRIVLFGTSALIPEVFTYFFKRTQYFRKNPGSLWILKLSCTVLAMGLMVPFSFSIFPQIGQIQYCSLEEKIQSPTEETEIFYHRGV [SFXN4]”, the “solubility change mitosis (log2)” value in the data set with HeLa Kyoto [1] was -0.195. Further, the thermal stability score was 0.0593 with HeLa Kyoto [2] (setting [5]) and -1.77 in the data set with HeLa Kyoto [2] (cell cycle stage: mitosis). In addition, the results for the melting temperature in the data set with HeLa Kyoto [3] (cell cycle stage: G1/S) and in the data set with HeLa Kyoto [3] (cell cycle stage: mitosis) were 53.9 °C and 54.8 °C, respectively. Moreover, in the data set with HeLa Kyoto [4], the “solubility in G1/S (log2)” value is -0.194.
On to “MSLEQRSLHCKPEEALEAQQEALGLVCVQAATSSSSPLVLGTLEEVPTAGSTDPPQSPQGASAFPTTINFTRQRQPSEGSSSREEEGPSTSCILESLFRAVITKKVADLVGFLLLKYRAREPVTKAEMLESVIKNYKHCFPEIFGKASESLQLVFGIDVKEADPTGHSYVLVTCLGLSYDGLLGDNQIMPKTGFLIIVLVMIAMEGGHAPEEEIWEELSVMEVYDGREHSAYGEPRKLLTQDLVQEKYLEYRQVPDSDPARYEFLWGPRALAETSYVKVLEYVIKVSARVRFFFPSLREAALREEEEGV [MAGEA1]”, for which the “solubility change mitosis (log2)” value in the data set with HeLa Kyoto [1] was -0.0297. The thermal stability score in the data set with HeLa Kyoto [2] (setting [5]) stood at 0.313; in the data set with HeLa Kyoto [2] (cell cycle stage: mitosis), 2.38. For the same sequence, the results for the melting temperature with HeLa Kyoto [3] (cell cycle stage: G1/S) and with HeLa Kyoto [3] (cell cycle stage: mitosis) were 48.4 °C and 49.5 °C, respectively. Also, the “solubility in G1/S (log2)” value in the data set with HeLa Kyoto [4] was -0.178.
On to “MSLKSERRGIHVDQSDLLCKKGCGYYGNPAWQGFCSKCWREEYHKARQKQIQEDWELAERLQREEEEAFASSQSSQGAQSLTFSKFEEKKTNEKTRKVTTVKKFFSASSRVGSKKEIQEAKAPSPSINRQTSIETDRVSKEFIEFLKTFHKTGQEIYKQTKLFLEGMHYKRDLSIEEQSECAQDFYHNVAERMQTRGKVPPERVEKIMDQIEKYIMTRLYKYVFCPETTDDEKKDLAIQKRIRALRWVTPQMLCVPVNEDIPEVSDMVVKAITDIIEMDSKRVPRDKLACITKCSKHIFNAIKITKNEPASADDFLPTLIYIVLKGNPPRLQSNIQYITRFCNPSRLMTGEDGYYFTNLCCAVAFIEKLDAQSLNLSQEDFDRYMSGQTSPRKQEAESWSPDACLGVKQMYKNLDLLSQLNERQERIMNEAKKLEKDLIDWTDGIAREVQDIVEKYPLEIKPPNQPLAAIDSENVENDKLPPPLQPQVYAG [RABGEF1]”, for which the “solubility change mitosis (log2)” value in the data set with HeLa Kyoto [1] is -0.0709. Further, the thermal stability score with HeLa Kyoto [2] (setting [5]) is 0.899; in the data set with HeLa Kyoto [2] (cell cycle stage: mitosis) it was -2.37. For the same sequence, the melting temperature is 52.3 °C with HeLa Kyoto [3] (cell cycle stage: G1/S) and 50.3 °C in the data set on HeLa Kyoto [3] (cell cycle stage: mitosis). Moreover, the “solubility in G1/S (log2)” value in the data set with HeLa Kyoto [4] was determined as 0.143.
